Measured values from patent US5585345.

What was measured:
[1] = molecular target: human glycoprotein hormone alpha subunit (human) (UniProt P01215); assay: co-expression with alpha subunit in CHO cells, 35S-cysteine pulse-chase, immunoprecipitation, SDS-PAGE
[2] = molecular target: human glycoprotein hormone alpha subunit (human) (UniProt P01215); assay: co-expression with alpha subunit in CHO cells, pulse-chase, immunoprecipitation; monoglycosylated form recovered in the medium
[3] = molecular target: human glycoprotein hormone alpha subunit (human) (UniProt P01215); assay: co-expression with alpha subunit in CHO cells, pulse-chase, immunoprecipitation; recovery of diglycosylated form, estimated

Row | Substance | Dimer Recovery (%) [1] | Dimer Recovery (%) [2] | Dimer Recovery (%) [3]
1 | CG(1-114) | 90% | – | –
2 | LH(1-114) | 80% | – | –
3 | LHarg^8 | 32% | – | –
4 | LHasn^58 (1-114) | > 95% | – | –
5 | LHthr^15 (1-114) | – | 40% | > 95%
6 | LHthr^42 (1-114) | 84% | – | –

The next lines start with the values.

Row | Dimer Recovery (%) [1] | Dimer Recovery (%) [2] | Dimer Recovery (%) [3] | Substance
7 | 91% | – | – | LHarg^8 (1-114)
8 | 95% | – | – | LHarg^8 arg^10 (1-114)
9 | 30% | – | – | LHthr^15
10 | > 95% | – | – | human chorionic gonadotropin beta subunit
11 | 42% | – | – | human luteinizing hormone beta subunit
